Laboratory results reported in US20030049646A1 (METROHEALTH SYSTEM, published 2003).

T1: KChAP (K+ Channel Associated Protein), full length, in pGAD10 (rat, UniProt O70260 55-628)
T1 construct: Yeast two-hybrid construct; also called full length KChAP
T1 sequence: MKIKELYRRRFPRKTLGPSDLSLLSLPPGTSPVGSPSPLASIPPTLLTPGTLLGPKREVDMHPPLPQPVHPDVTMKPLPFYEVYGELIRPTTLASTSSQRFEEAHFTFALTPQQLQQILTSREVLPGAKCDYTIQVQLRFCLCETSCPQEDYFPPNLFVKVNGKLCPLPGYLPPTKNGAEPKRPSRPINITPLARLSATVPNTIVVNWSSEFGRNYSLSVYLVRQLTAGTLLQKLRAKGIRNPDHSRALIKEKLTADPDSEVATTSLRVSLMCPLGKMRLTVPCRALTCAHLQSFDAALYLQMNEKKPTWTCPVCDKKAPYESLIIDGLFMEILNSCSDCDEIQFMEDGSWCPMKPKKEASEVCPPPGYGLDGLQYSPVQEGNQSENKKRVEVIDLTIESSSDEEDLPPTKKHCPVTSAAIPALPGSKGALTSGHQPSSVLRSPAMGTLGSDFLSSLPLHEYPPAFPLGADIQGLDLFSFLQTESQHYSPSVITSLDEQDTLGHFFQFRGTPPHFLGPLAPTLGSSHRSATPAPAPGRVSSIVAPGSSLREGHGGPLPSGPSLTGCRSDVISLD

B1: HERG N-terminus (amino acids 1-396), in pGBT9 (other, UniProt P04386 1-147, looked up)
chain: MKLLSSIEQACDICRLKKLKCSKEKPKCAKCLKNNWECRYSPKTKRSPLTRAHLTEVESRLERLEQLFLLIFPREDLDMILKMDSLQDIKALLTGLFVQDNVNKDAVTDRLASVETDMPLTLRQHRISATSSSEESSNKGQRQLTVSMPVRRGHVAPQNTFLDTIIRKFEGQSRKFIIANARVENCAVIYCNDGFCELCGYSRAEVMQRPCTCDFLHGPRTQRRAAAQIAQALLGAEERKVEIAFYRKDGSCFLCLVDVVPVKNEDGAVIMFILNFEVVMEKDMVGSPAHDTNHRGPPTSWLAPGRAKTFRLKLPALLALTARESSVRSGGAGGAGAPGAVVVDVDLTPAAPSSESLALDEVTAMDNHVAGLGPAEERRALVGPGSPPRSAPGQLPSPRAHSLNPDASGSSCSLARTRSRESCASVRRASSADDIEAMRAGVLPPPPRHASTGAMHPLRSGLLNSTSDSDLVRYRTISKIPQITLNFVDLKGDPFLASPTSDREIIAPKIKERTHNVTEKVTQVLSLGADVLPEYKLQAPRIH
notes: also called N-terminus of the delayed rectifier K+ channel, HERG

Experiments:
Assay in all cases: yeast two-hybrid (Y190, pGAD10 x pGBT9), β-galactosidase filter assay
[1] = biological target: T2, human Gu binding protein (GBP), in pGAD10 (human, UniProt O75925 55-651, limits assumed)
T2 construct: Comparison protein, about 50% homologous to KChAP
Procedure: (§1) In the indirect procedure, the yeast Matchmaker Two-Hybrid System Clontech and cDNA molecules encoding KChAP and KChAP-Y were used. The binding specificity between full length KChAP or KChAP-Y and the following Kvα, Kvβ and other K+ channel subunit fragments were determined: Kvβ1.2 (amino acids 1-408), Kvβ1.2-N terminus (amino acids 1-79), Kvβ1C (carboxyl terminal 329 amino acids of the Kvβ1 subfamily), Kvβ2 (amino acids 1-367); Kv1.1-N terminus (amino acids 1-168), Kv1.2 N-terminus (amino acids 1-124), Kv1.4 N-terminus (amino acids 1-305), Kv1.4 C-terminus (amino acids 562-654), Kv1.5 N-terminus (amino acids 1-248), Kv2.1 N-terminus (amino acids 1-168), Kv2.2 N-terminus (amino acids 1-185), Kv6.1 N-terminus (amino acids 1-209), Kir2.2 N-terminus (amino acids 1-86), and HERG N-terminus (amino acids 1-396). The ability of human Gα-binding protein (GBP) to bind to these fragments was also determined.
(§2) Protein-protein interactions were tested by co-transformation of the yeast host strain Y190 with a pGAD10 plasmid containing inserts encoding KChAP-Y, KChAP or GBP with a pGBT9 plasmid containing an insert encoding one of the K+ channel protein fragments. pGBT9 is a GAL4 DNA binding domain [BD] vector. Co-transformants were plated on medium lacking trp and leu and grown for 2.5 days at 30° C. Yeast colonies were lifted to paper filters and assayed for β-galactosidase activity. Appearance of blue color within 8 hours was scored as a positive interaction between the proteins encoded by the two plasmids.

[2] = biological target: T1, KChAP (K+ Channel Associated Protein), …
Procedure: as §1, §2

[3] = biological target: B1
Procedure: as §1, §2

T2 sequence (O75925 55-651 limits assumed): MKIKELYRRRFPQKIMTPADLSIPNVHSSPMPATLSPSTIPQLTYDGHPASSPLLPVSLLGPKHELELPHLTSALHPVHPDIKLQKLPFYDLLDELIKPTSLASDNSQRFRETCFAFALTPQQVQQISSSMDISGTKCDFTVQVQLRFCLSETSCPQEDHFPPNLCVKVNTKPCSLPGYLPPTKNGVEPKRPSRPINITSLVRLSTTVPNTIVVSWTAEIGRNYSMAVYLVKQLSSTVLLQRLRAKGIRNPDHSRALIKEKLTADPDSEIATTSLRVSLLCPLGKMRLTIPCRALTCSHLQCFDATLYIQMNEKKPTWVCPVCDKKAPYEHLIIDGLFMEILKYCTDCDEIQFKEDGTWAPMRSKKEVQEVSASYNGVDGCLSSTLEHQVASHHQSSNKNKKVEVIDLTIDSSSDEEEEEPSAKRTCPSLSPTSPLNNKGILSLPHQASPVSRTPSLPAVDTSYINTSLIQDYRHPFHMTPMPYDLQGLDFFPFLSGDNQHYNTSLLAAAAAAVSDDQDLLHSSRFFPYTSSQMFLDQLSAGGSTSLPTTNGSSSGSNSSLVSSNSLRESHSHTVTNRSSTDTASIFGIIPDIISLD

Binder | binding result [1] | binding result [2] | binding result [3]
Kvβ1C (carboxyl terminal 329 amino acids of the Kvβ1 subfamily), in pGBT9 (other, UniProt P04386 1-147, looked up, also called C-terminus of Kvβ1) MKLLSSIEQACDICRLKKLKCSKEKPKCAKCLKNNWECRYSPKTKRSPLTRAHLTEVESRLERLEQLFLLIFPREDLDMILKMDSLQDIKALLTGLFVQDNVNKDAVTDRLASVETDMPLTLRQHRISATSSSEESSNKGQRQLTVSHRNLGKSGLRVSCLGLGTWVTFGGQISDEVAERLMTIAYESGVNLFDTAEVYAAGKAEVILGSIIKKKGWRRSSLVITTKLYWGGKAETERGLSRKHIIEGLKGSLQRLQLEYVDVVFANRPDSNTPMEEIVRAMTHVINQGMAMYWGTSRWSAMEIMEAYSVARQFNMIPPVCEQAEYHLFQREKVEVQLPELYHKIGVGAMTWSPLACGIISGKYGNGVPESSRASLKCYQWLKERIVSEEGRKQQNKLKDLSPIAERLGCTLPQLAVAWCLRNEGVSSVLLGSSTPEQLIENLGAIQVLPKMTSHVVNEIDNILRNKPYSKKDYRS | no binding |  | 
B1 | no binding | no binding | 
Kv2.1 N-terminus (amino acids 1-168), in pGBT9 (other, UniProt P04386 1-147, looked up) MKLLSSIEQACDICRLKKLKCSKEKPKCAKCLKNNWECRYSPKTKRSPLTRAHLTEVESRLERLEQLFLLIFPREDLDMILKMDSLQDIKALLTGLFVQDNVNKDAVTDRLASVETDMPLTLRQHRISATSSSEESSNKGQRQLTVSMPAGMTKHGSRSTSSLPPEPMEIVRSKACSRRVRLNVGGLAHEVLWRTLDRLPRTRLGKLRDCNTHDSLLQVCDDYSLEDNEYFFDRHPGAFTSILNFYRTGRLHMMEEMCALSFSQELDYWGIDEIYLESCCQARYHQKKEQMNEELKREAETLREREGEEFDNTCC | no binding |  | 
KChAP-Y (partial clone of KChAP from W310 to the C-terminus), in pGAD10 (other, not shown: large carriers, also called KChAP-Y plasmid) WTCPVCDKKAPYESLIIDGLFMEILNSCSDCDEIQFMEDGSWCPMKPKKEASEVCPPPGYGLDGLQYSPVQEGNQSENKKRVEVIDLTIESSSDEEDLPPTKKHCPVTSAAIPALPGSKGALTSGHQPSSVLRSPAMGTLGSDFLSSLPLHEYPPAFPLGADIQGLDLFSFLQTESQHYSPSVITSLDEQDTLGHFFQFRGTPPHFLGPLAPTLGSSHRSATPAPAPGRVSSIVAPGSSLREGHGGPLPSGPSLTGCRSDVISLD |  |  | no binding
